The record followed here is the nanobody polyreactivity screen of Harvey et al. (2022).

The data set is described as follows: yeast display, Sf9 membrane polyspecificity reagent, FACS + sequencing; frameworks hold sequencing errors. The procedure, abridged:
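Genes from sorted yeast were amplified by colony PCR, read by MiSeq 2 × 250 sequencing and filtered on CDR length. These cells carried a synthetic nanobody library in Saccharomyces cerevisiae BJ5465 and were sorted by FACS into low and high (top ~1%) gates on anti-HA and streptavidin fluorescence. Polyreactivity is labelled according to the gate of origin.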
For “QVQLVESGGGLVQAGGSLRLSCAASGFTFDQYTMGWYRQAPGKERELVAAISSSGGSTYYADSVKGRFTISRDNAKNTVYLQMNSLKPEDTAVFYCAARFLLTQRFSHDYWGQGTQVTVSS”, the “polyreactivity (PSR sort gate)” value is on record as “low polyreactivity”. Regarding “QVQLVESGGGLVQAGGSLRLSCAASGFTFDSNGMGWYRQAPGKERELVAAISTGGSTYYADSVKGRFTISRDNAKTTVYIPMNSLKPEDTPVYYCARDTPYPDTWYGYWGQGTQVTVSS”, the “polyreactivity (PSR sort gate)” value is on record as “low polyreactivity”.

Regarding “QVQLVESGGGLVQAGGSLRLSCAASGFTFDTYAMGWYRQAPGKERELVAAISWSGGSTYYADSVKGRFTISRDNAKNTVYLQMNSLKPEDTAVYYCAAETPVDWWSTSYNYWGQGTQVTVSS”, the “polyreactivity (PSR sort gate)” value is recorded as “high polyreactivity”. As for “QVQLVESGGGLVQAGGSLRLSCAASGFTFDTYGMGWYRQAPGKERELVAAITGDGDSTYYADSVKGRFTISRDNAKNTVYLQMNSLKPEDTAVYYCATDQDVVGYWTIYYYAWGYEYCGQGTQVTVSS”, the “polyreactivity (PSR sort gate)” value was “low polyreactivity”. As to “QVQLVESGGGLVQAGGSLRLSCAASGFTFDVYAKGLYRQAPGKERELVAAISIGANTYYADSVKGRFTISRDNAKSTVYLQMNSLKPEDTAVYYCAKRAYAPQYGYWGQGTQVTVSS”, the “polyreactivity (PSR sort gate)” value is on record as “low polyreactivity”. As for “QVQLVESGGGLVQAGGSLRLSCAASGFTFDWYAMGWYRPAPGTERELVAAISTRGTSTYYADSVKGRFTISRDNAKNTVYLQMNSLKPEDTAVYYCAKRSYHGGDYWGQGTQVTVSS”, the “polyreactivity (PSR sort gate)” value is reported as “high polyreactivity”. As to “QVQLVESGGGLVQAGGSLRLSCAASGFTFDYNAMGWYRQAPGKERELVAAISNTGDSTYYADSVKGRFTISRDNAKNTVYLQMNSLKPEDTAVYYCAATSVPRYYYWGQGTQVTVSS”, the “polyreactivity (PSR sort gate)” value was “low polyreactivity”. As to “QVQLVESGGGLVQAGGSLRLSCAASGFTFDYYAMGWYRQAPGKERELVAAISKRGGSTYYADSVKGRFTISRDNAKNTVYLQMNSLKPEDTAVYYCAAASYSSPRTSSGNYWGQGTQVYVSS”, the “polyreactivity (PSR sort gate)” value is “high polyreactivity”. For “QVQLVESGGGLVQAGGSLRLSCAASGFTFDYYAMGWYRQAPGKERELVAAISRRGTSTYYADSVKGRFTISRDNAKNTVYLQMYSLKPEDTAVYYCNAVTSSFYNRDSDYWGQGTQVTVSS”, the “polyreactivity (PSR sort gate)” value is reported as “high polyreactivity”. For “QVQLVESGGGLVQAGGSLRLSCAASGFTFDYYAMGWYRQAPGKERELVATINGASSTNYADSVKGRFTISRDNAKNTVYLQMNSLKPEDTAVYYCNARYYGPDFVLAYDYWGQGTQVTESS” the value was “low polyreactivity”. Regarding “QVQLVESGGGLVQAGGSLRLSCAASGFTFDYYDLGWYRQAPGKERELVAGITYSGGRTRYADSVKGRFTISRDNAKNTVYLQMNSLKPEDTSVDYCAARPGYPYRMNYWGQGTQVTVSS”, the “polyreactivity (PSR sort gate)” value is “low polyreactivity”.

“QVQLVESGGGLVQAGGSLRLSCAASGFTFDYYTMGWSRQAPGKERELVAAISWSGGSTYYADSVKGRFTISRDNAKNTVYLQMNSLKPEDTAVYYCAVDGPKTDDIENYWGQGTQVTVSS”: the “polyreactivity (PSR sort gate)” value is “low polyreactivity”. As for “QVQLVESGGGLVQAGGSLRLSCAASGFTFEKYAMGRYIQAPGKERELDASISWSGGRTRYADSVKGRFTISRDNAKNTVYLQMNSLKPEDTAVYYCAARPLFGWRGYNYWGQGTQVTVSS”, the “polyreactivity (PSR sort gate)” value is “high polyreactivity”. As for “QVQLVESGGGLVQAGGSLRLSCAASGFTFENYAMGWYRQAPGKERELVAAITRTGGITYYADSVKGRFTISRDNAKNTVYLQLNSLKPEDTAVYYCDADDTWTRPKNYDRYDYWGQGTQVTVSS”, the “polyreactivity (PSR sort gate)” value is recorded as “low polyreactivity”. For “QVQLVESGGGLVQAGGSLRLSCAASGFTFFIYAMGWYSQAPGKEREFVAAITGSGGSTYYADSVKGRFTISRDNAKNTVYLQMNSLKPEDTAVYYCNTAGYDYYSTQAYDYWGQGTQVTVSS”, the “polyreactivity (PSR sort gate)” value is “high polyreactivity”.

Turning to “QVQLVESGGGLVQAGGSLRLSCAASGFTFFLNAMGWYRQAPGKERELVAAINRSGGSTYYADSVKGRFTISRDNAKNTVYLQMNSLKPEDTAVYYCATYSFWHYAYDYWGQGTQVTVSS”, the “polyreactivity (PSR sort gate)” value was “low polyreactivity”.

For the sequence “QVQLVESGGGLVQAGGSLRLSCAASGFTFFPNAMGWYRQAPGKERELFAAISRSDDNTFYADSVKGRITISRDNAKNTVYLQMNSLKPEDTAVYYCDKSAVPWRYPRGYDYWGQGTQVTVSS”, the “polyreactivity (PSR sort gate)” value is “low polyreactivity”.

In the case of “QVQLVESGGGLVQAGGSLRLSCAASGFTFFRYAMGWYRQAPGKERDLVAAITSGGGRTYYADSVKGRFTISRYNAKNTVYLQMNRLKPEDTAVYYCNAVRRVDMYYWGLGTQVTVSS”, the “polyreactivity (PSR sort gate)” value is “high polyreactivity”. For “QVQLVESGGGLVQAGGSLRLSCAASGFTFFVNTMGWYRQAPGKERELVAAISYDGGSTTYADSVKGRFTISRDNAKNTVYLQMNSLKPEDTAVYYCAAEYWAPFDYGTNSGYEYWGQGTQVTVSS”, the “polyreactivity (PSR sort gate)” value is “low polyreactivity”. For “QVQLVESGGGLVQAGGSLRLSCAASGFTFFWNAMGWSRQAPGKERELVAVITFRGGDTYYADSVKGRFTISRDNAKNTVYLQMNSLKPEDTAVYYCNADWQSYGYLWHSSLYYYWGQGTQVTVSS” the value was “low polyreactivity”.

On to “QVQLVESGGGLVQAGGSLRLSCAASGFTFFYNAMGWYRPAPGKERELGAVITWNGGTTYYADSVKGRFTISRDNAKNTVYLQMNSLKTEDTAVYYCNADGLILYDYWGQGTQVTVSS”, for which the “polyreactivity (PSR sort gate)” value was “low polyreactivity”.

With “QVQLVESGGGLVQAGGSLRLSCAASGFTFFYYAIRWYRQAPGKEREVVAAISSNGGRTYYADSVKGRFTISRDNAKNTVYLQMYSLKPEDTAVYYCTALRYVVYFDDDYWGQGTQVTVSS”, the “polyreactivity (PSR sort gate)” value was “high polyreactivity”. As to “QVQLVESGGGLVQAGGSLRLSCAASGFTFFYYAMGWYRKAPGKERELVARISSSGGRTYYSDSVKGRFTISRDNAKNTVYLQMNSLKPEDTAVYYCNARYYYYYTRYDYWGQGTQVTVSS”, the “polyreactivity (PSR sort gate)” value was “high polyreactivity”.

Consider “QVQLVESGGGLVQAGGSLRLSCAASGFTFGANVMGWYRQAPGKERELVAAINTRGSRTYYADSVKGRFTISRDHAKNTVYLQMNRLKQEDTAVYYCAAALRKEYDYWGQGTQVTVSS”, for which the “polyreactivity (PSR sort gate)” value is recorded as “high polyreactivity”. Regarding “QVQLVESGGGLVQAGGSLRLSCAASGFTFGDYAMGWYRQAPGKERELVAAISWSGGRTSYADSVKGRFTISRDNAKNTVYLQMNSLKPEDTAVYYCAARYRYAYTSFPFYYWGQGTQVTVSS”, the “polyreactivity (PSR sort gate)” value is reported as “high polyreactivity”. “QVQLVESGGGLVQAGGSLRLSCAASGFTFGDYAMGWYRQAPGKERELVAVISSGGSTYYADSVKGRFTISRDNAKNTVYLQMNSLKPEDTAVYYCAKYVFRVWYHVFEVDYWGQGTQVTVSS”: the “polyreactivity (PSR sort gate)” value is “low polyreactivity”. With “QVQLVESGGGLVQAGGSLRLSCAASGFTFGENAMGWYRQAPGKERELVATISDSGDSTYYADSVKGRFTISRDNAKNTVYLQMNSLKPEDTAVYYCAAPLPHRGYDEGYWGQGTQVTVSS”, the “polyreactivity (PSR sort gate)” value is on record as “low polyreactivity”. For “QVQLVESGGGLVQAGGSLRLSCAASGFTFGEYAMGWYRQEPGKERELVATISSGVGTNYADSVKGRFTISRDNAKNTVYLQMNSLKPVDTAVYYCNARGRGSDVRVYVDEGDYWGQGTQVTVSS” the value was “low polyreactivity”; for “QVQLVESGGGLVQAGGSLRLSCAASGFTFGFYAMGWYRQAPGKERELVASITTRGGSTRYADSVKGRFTISRDNAKNTVYLQMNSLKPEDTAVYYCAAQYSYVRYLKRGYGYWGQGTQVTVSS”, “high polyreactivity”. For the sequence “QVQLVESGGGLVQAGGSLRLSCAASGFTFGGNAMGWYRQAPGKERELVAAISGRGGRTFYADSVKGRFTISRDNAKNTVYLQMNSLKPEDTGVYYCAAYYRYDVGAYDYWGQGTQVTVSS”, the “polyreactivity (PSR sort gate)” value is “high polyreactivity”. Next, “QVQLVESGGGLVQAGGSLRLSCAASGFTFGGNPMGWYRQAPGKERELVAAIRRGGSTYYADSVKGRFTISRDNAKNTVYLQMNSLKPEDTAVYYCAAAIPGKYSNDDWGQGTQVTVSS”: “high polyreactivity”; “QVQLVESGGGLVQAGGSLRLSCAASGFTFGGYAMGWYRQAPGKERELVAAIDSSGGRTYYADSVKGRFTISRDNAKNTVYLQMNSLKPEDTAVYYCNAGNSGWWRYDYDYWGQGTQVTVSS”: “high polyreactivity”; “QVQLVESGGGLVQAGGSLRLSCAASGFTFGGYAMGWYRQAPGKERELVAAINSIGGTTYYADSVKGRFTISRDNAKNTVYLQMNRLKPEDTAVYYCAAGFYGYARHTWYNYWGQGTQVTVSS”: “high polyreactivity”.

Regarding “QVQLVESGGGLVQAGGSLRLSCAASGFTFGGYAMGWYRQAPGKEREMVAGISGSGGRTYYADSVKGRFTISRDNAKNTVYLQMNSLKPEDTAVYYCGADRASPYLEYYWGLGTQVTVSS”, the “polyreactivity (PSR sort gate)” value is recorded as “low polyreactivity”. Regarding “QVQLVESGGGLVQAGGSLRLSCAASGFTFGHNDMGWYRQAPGKERELVASITQSGGSTYYADSVKGRFTISRDNAKNTVYLQMNSLKPEDTAVYYCAKDLYQSAFITKYDYWGQGTQVTVSS”, the “polyreactivity (PSR sort gate)” value is on record as “low polyreactivity”. As to “QVQLVESGGGLVQAGGSLRLSCAASGFTFGHYARGWSRQAPGKERELVAAISRSGGTTSYADSVKGRFTISRDNAKNTVYLQMNSLKTEDTAVYYCNKDYIWARYGGGRDYWGQGTQVTVSS”, the “polyreactivity (PSR sort gate)” value is listed as “low polyreactivity”. Consider “QVQLVESGGGLVQAGGSLRLSCAASGFTFGINAMGWYRQAPGKERELVAAINQSGDRTYYADSVKGRFTISRDNAKNTVYLQMNSLKPEDTAVYYCAALSTYRTWYGYWGQGTQVTVSS”, for which the “polyreactivity (PSR sort gate)” value is recorded as “high polyreactivity”. With “QVQLVESGGGLVQAGGSLRLSCAASGFTFGIYAMGWYRPATVKERELVAAISSSGGSTYYADSVKGRFTISRDNAKHTVYLQMNSLKPEDTAVYYCNAGALYRVYPYRGKLAYITYDSWGQGTQVTVSS”, the “polyreactivity (PSR sort gate)” value is “high polyreactivity”. “QVQLVESGGGLVQAGGSLRLSCAASGFTFGIYAMGWYRQAPGKERELVADISSGGSTYYADSVKGRFTISRDNAKNTVYLQMNSLKPEDTAVYYCARDSWWYHHYDYWGQGTQVTVSS”: the “polyreactivity (PSR sort gate)” value is given as “low polyreactivity”. For “QVQLVESGGGLVQAGGSLRLSCAASGFTFGIYDMGWYRQAPGKERELVAAISWRGVSTYYADSVKGRFRISRDNAKNTVYLQMNSLKPEDTAVYYCNAVDTDGDLYPINYPYDYGYDYWGQGTQVTVSS”, the “polyreactivity (PSR sort gate)” value is “low polyreactivity”.
